Columns and labels:
[1] = target: T1, MUC1* extra cellular domain peptide (Homo sapiens, UniProt P15941); experiment: gold nanoparticle binding assay, NME7 and MUC1* peptide (FIG. 7); conditions: protein added free in solution
T1 sequence (P15941 with tags, fused parts or gaps): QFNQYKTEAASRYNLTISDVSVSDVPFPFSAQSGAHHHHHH
Description: Gold nanoparticles of a diameter of 30.0 nm were coated with an NTA-SAM surface according to Thompson et al. (ACS Appl. Mater. Interfaces, 2011, 3 (8), pp 2979-2987). The NTA-SAM coated gold nanoparticles were then activated with an equal volume of 180 uM NiSO4, incubated for 10 min at room temperature, washed, and resuspended in a 10 mM phosphate buffer ([…]). The gold nanoparticles were then loaded with PSMGER N-10 peptide ([…] (SEQ ID NO:155)) at 0.5 uM final concentration, and incubated at room temperature for 10 min. Recombinant NME7-AB protein expressed and purified from E. coli was added free in solution at the concentrations indicated. When particle-immobilized proteins bind to each other, or simultaneously bind to two different peptides on two different particles, the particle solution color changes from pink/red to purple/blue. If the protein added free in solution causes particle aggregation, it is strong evidence that the free protein dimerizes the cognate peptide, since binding to a single peptide would not induce two or more particles to be brought into close proximity to each other.
The NME7-AB is added free in solution at the concentrations indicated. Solution color change from pink to purple/blue from particle aggregation indicates binding between the MUC1* peptide on the particles and NME7 free in solution. […] Particle aggregation, indicating NME7 can simultaneously bind to two peptides is observed. […] The T47D breast cancer cell line Lysate, which contains native NME7 turns noticeably purple also.

A panel of cancer cells = experiment: PCR of stem and cancer stem cell markers in cancer cells cultured in NME proteins; format: cell-based; conditions: cell type not given
Description: Another function that NME1 and NME7 have is the ability to transform cancer cells to the more metastatic cancer stem cell state, also called tumor initiating cells. A panel of cancer cells were cultured in a serum-free minimal base media with human NME7-AB or human NME1 dimers (‘NM23’ in figures) as the only growth factor or cytokine. After several days in this media, cells began to float off the surface and continued to grow in solution. The ‘floaters’ were collected and separately analyzed by PCR. Cells in other wells were treated with a rho kinase inhibitor (‘Ri in figures’). Quantitative PCR measurements show an increase of the cancer stem cell markers, some of which used to be thought of as stem cell markers only (Miki J et al 2007, Jeter C R et al 2011, Hong X et al 2012Faber A et al 2013, Mukherjee D et al 2013, Herreros-Villanueva M et al, 2013, Sefah K et al, 2013; Su H-T et al 2013). […] We observed a more modest, but trending, increase in markers of cancer stem cells and metastasis even in cells that were MUC1-negative (FIG. 47). We therefore conclude that NME7 likely is able to enter these cells by a route other than MUC1* wherein it can still act as a transcription factor and affect the expression levels of these genes. […] However, many cancers mutate NME1 so that it resists the formation of the self-replication limiting hexamer. Unlike NME1, NME7 is always active.
Standard methods were used to perform RT-PCR. The primers used are listed below: RNA was isolated using the Trizol® Reagent (Invitrogen) and cDNA was reverse transcribed with Random Hexamers (Invitrogren) using Super Script II (Invitrogen) and subsequently assayed for the genes FOXA2, XIST, KLF2, KLF4, NANOG and OCT4, using Applied Biosystems gene expression assays (OCT4 P/N Hs00999634_gH, Nanog P/N Hs02387400_g1, KLF2 P/N Hs00360439_g1, KLF4 P/N Hs00358836_m1, FOXa2 P/N Hs00232764_m1, OTX2 P/N Hs00222238_m1, LHX2 P/N Hs00180351_m1, XIST P/N Hs01079824 ml and GAPDH P/N 4310884E), on an Applied Biosystems 7500 real-time instrument. Each sample was run in triplicate. Gene expression was normalized to GAPDH. Data are expressed as a fold change relative to control.

T47D breast cancer cells = experiment: RT-PCR of T47D cells cultured in 2i inhibitors and/or NME7-AB (FIGS. 48, 49); format: cell-based
Description: 2i inhibitors, which are small molecule inhibitors of GSK3-beta and MEK of the MAP kinase signaling pathway, have been reported (Silva J et al, 2008) to revert mouse primed stem cells to the naïve state. We wondered whether these inhibitors could also revert human cancer cells to the cancer stem cell state. T47D breast cancer cells were cultured for 10 days in a serum-free minimal base media with the 2i inhibitors added or in the same base media with human recombinant NME7-AB added, or both NME7-AB and 2i. […] The relative potency of inducing the cancer stem cell markers was NME7>NME7+2i>2i (FIG. 48).

B1: NME7-AB: recombinant human NME7 of NDPK A and B domains without the DM10 leader sequence, ~33 kDa (SEQ ID NO:39) (protein, listed as Homo sapiens)
chain: MEKTLALIKPDAISKAGEIIEIINKAGFTITKLKMMMLSRKEALDFHVDHQSRPFFNELIQFITTGPIIAMEILRDDAICEWKRLLGPANSGVARTDASESIRALFGTDGIRNAAHGPDSFASAAREMELFFPSSGGCGPANTAKFTNCTCCIVKPHAVSEGLLGKILMAIRDAGFEISAMQMFNMDRVNVEEFYEVYKGVVTEYHDMVTEMYSGPCVAMEIQQNNATKTFREFCGPADPEIARHLRPGTLRAIFGKTKIQNAVHCTDLPEDGLLEVQYFFKILDN
modifications: Human NME7-AB
**Q.** B1 was tested. Which “binding to MUC1* peptide on nanoparticles (color change pink to purple/blue)” value [1] did it give?
**A.** Its value is “turned purple almost immediately”.

**Q.** And the “binding to MUC1* peptide on nanoparticles (color change pink to purple/blue)” value ([1]; listed as NME7)?
**A.** Its value is “has two binding sites for the MUC1* peptide”.

**Q.** What about the “up-regulation of KLF4” value (A panel of cancer cells) of the same molecule?
**A.** The value was 4 X.

**Q.** What about the “up-regulation of MUC1” value (A panel of cancer cells) of the same molecule?
**A.** The value was 10 X.

**Q.** And the “up-regulation of NANOG” value (A panel of cancer cells)?
**A.** The value was ~10 X.

**Q.** And the “up-regulation of OCT4” value (A panel of cancer cells)?
**A.** The value was ~50 X.

**Q.** What about the “up-regulation of SOX2” value (A panel of cancer cells) of the same molecule?
**A.** Its value is > 150 X.

**Q.** What about the “up-regulation of cancer stem cell marker CXCR4” value (A panel of cancer cells) of the same molecule?
**A.** The value was ~200 X.

**Q.** What about the “up-regulation of cancer stem cell marker E-cadherin (CDH1)” value (A panel of cancer cells) of the same molecule?
**A.** The value was “up-regulates”.

**Q.** What about the “expression of CDH1, CXCR4, OCT4, SOX2 and NANOG” value (T47D breast cancer cells; T47D cultured for 10 days in serum-free minimal base media, FIG. 48) of the same molecule?
**A.** Its value is “greatly up-regulated”.

**Q.** What about the “expression of BRD4, JMJD6, MBD3 and CHD4” value (T47D breast cancer cells; T47D, FIG. 49) of the same molecule?
**A.** The value was “similarly down-regulated”.

Source: patent US20240277803A1, “NME INHIBITORS AND METHODS OF USING NME INHIBITORS” (Minerva Biotechnologies Corporation, priority 2013, published 2024)
